According to patent publication US20200291133A1 (VACARA, published 2020):
Blank lines part the entries; values can stand above or below the binder they belong to.

How the values were obtained:
CEP1 [1] = biological target: T1, CEP1 (X at 6 and 12 = citrulline; biotin-conjugated for SPR and Luminex); test: SPR (Biacore 2000), biotinylated CEP1 on a streptavidin chip, Fab as analyte up to about 3400 nM; plot of RU against concentration; REP1 channel as reference per the legend
T1 construct: CKIHAXEIFDSXGNPTVECK; derived from alpha-enolase; also called CEPI; citrullinated alpha-enolase peptide
T1 peptide: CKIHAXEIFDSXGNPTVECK
Protocol: (§1) SPR sensorgrams of chimeric E4NG Fab fragment (A), E4 (B), F3(C), D10 (D), and B2 (E) binding to immobilized CEP1. Response Units (R.U.) reflect the value of subtracting […]. A series of analyte concentrations were tested. The binding of E4NG (F) and F3 (G) to citrullinated Histone2A peptide were analyzed in a similar way as shown in (A)-(E).
(§2) Surface plasmon resonance analysis. Binding of peptides to the given antibody was analyzed by SPR using a Biacore 2000 biosensor at 25° C. Briefly, the biotin-conjugated peptide was coupled to an […] by streptavidin binding. Then the Fab fragment or full-length antibody was diluted in PBS-P running buffer (20 mM phosphate buffer, 2.7 mM KCl, 137 mM NaCl and 0.05% Surfactant P20) and injected at in a series of concentrations. Data processing and analysis were performed using Biacore 2000 evaluation software.

CEP1 [2] = biological target: T1, CEP1; test: SPR, CEP1 immobilised
Protocol: as §2

CEP1 [3] = biological target: T1, CEP1; test: SPR (Biacore 2000), biotinylated CEP1 on a streptavidin chip, full antibody as analyte up to 200 nM; plot of RU against concentration; REP1 channel as reference per the legend; the legend says only E4, paragraph 117 ties the CEP1 Kd to E4NG
Protocol: as §1, §2

Kd (CEP1 [1]): 2300 nM
B1: chimeric E4NG Fab fragment (murine IgG2b constant region) (Fab)
heavy: QVQLEESGPGLVRPSETLSLSCTVSGFPMSESYFWGWIRQSPGKGLEWLGSVIHTGTTYYRPSLESRLTIAMDPSKNQVSLSLTSVTVADSAMYYCVRIRGGSSNWLDPWGPGIVVTASS
light: QSVWTQPPSVSAAPGQKVTISCSGDDSILRSAFVSWYQQVPGSAPKLVIFDDRQRPSGIPARFSGSNSGTTATLDIAGLQRGDEADYYCAAWNGRLSAFVFGSGTKLTVLGQPKSSPSVTLFPPSSEELETNKATLVCTITDFYPGVVTVDWKVDGTPVTQGMETTQPSKQSNNKYMASSYLTLTARAWERHSSYSCQVTHEGHTVEKSLSRADCS
notes: domain: constant region; Fab made with the ImmunoPure Fab Preparation Kit (papain); also called E4Fab; mE4Fab; not shown: part of the mouse IgG2b constant region (UniProtKB P01867) left in the Fab after cleavage

Kd (CEP1 [2]): 0.25 nM
Kd (CEP1 [3]): 250 nM
B2: chimeric E4NG (antibody, mouse IgG2b)
heavy: B1 heavy
light: B1 light
notes: domain: constant region; Human E4 variable regions on mouse IgG2b/lambda-1 constant regions; also called chimeric non-glycosylated (NG) E4; mE4; not shown: mouse IgG2b heavy chain constant region, UniProtKB P01867
